Ends that are not written are not given here.
How the values were obtained:
[1] = target: T1, epidermal growth factor receptor (EGFR), endogenous in human cell lines (human, UniProt P00533 25-1210); assay: cell-based or functional assay
[2] = target: T1, epidermal growth factor receptor …; assay: co-immunoprecipitation from lysates of MCF10A and BT474 cells, western blot
Experimental: (§1) Cells were washed once with washing buffer (50 mM Hepes, 50 mM NaCl and 10 mM EDTA, pH 7.4) and lysed for 20 min on ice in 1% Triton X-100 containing a 1:1000 dilution of protease inhibitor mixture set III (Calbiochem) in washing buffer. Cell debris was removed by centrifugation at 20,000 g for 15 min at 4° C. […] Visualization of immune-reactive bands was performed using ECF reagent (GE Healthcare) and scanned on a Typhoon Trio Variable Mode Imager (GE-Healthcare) in blue fluorescence.

[3] = target: T1, epidermal growth factor receptor …; assay: co-immunoprecipitation of mouse syndecan chimeras from HaCat cells, western blot
Experimental: (FIG. 6A) Mouse syndecan chimeras in which their ectodomains are switched are expressed in HaCat cells, then immunoprecipitated with antibodies specific for the mouse syndecan ectodomains. […] HER2 or EGFR are immunoprecipitated from the lysates directly for comparison.
as §1

[4] = target: T2, β4^R1733A mutant of the β4 cytoplasmic domain (binding construct) (human, UniProt P16144-2 1677-1752); assay: binding of β4 cytoplasmic domain mutants to syndecan
T2 construct: not shown: 6×His tag and leader of the pTRC-His A vector
T2 sequence (looked up): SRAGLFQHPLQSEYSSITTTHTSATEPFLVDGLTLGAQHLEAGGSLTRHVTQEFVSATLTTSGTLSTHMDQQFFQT

NHIPERAGSGSQAAAAAAAAAANEVIPKRISPVEESEDVSNKVSM [SSTNEGFR synthetic peptide with amino acids 99-108 mutated to alanine]
activity against EGF-stimulated cell migration, relative to SSTNEGFR [1]: 10 fold reduction

NHIPERAGSGSQVPTEPKKLEENEVIPKRISPVEESEDV [SSTNEGFR synthetic peptide truncated of amino acids 126-131]
activity against EGF-stimulated cell migration, relative to SSTNEGFR [1]: ≥ 100 fold reduction

NHIPERAGSGSQVPTEPKKLEENEVIPKRISPVEESEDVSNKVSM [SSTNEGFR, synthetic peptide of amino acids 87-131 of the human Sdc4 ectodomain]
IC50, EGF-stimulated migration of MCF10A cells, scratch wound closure [1]: 100 to 300 nM

B1: GST-S4ED, recombinant Sdc4 ectodomain fused to GST (other, UniProt P31431 19-145, looked up, not shown: a dimerising Fc or GST)
chain: ESIRETEVIDPQDLLEGRYFSGALPDDEDVVGPGQESDDFELSGSGDLDDLEDSMIGPEVVHPLVPLDNHIPERAGSGSQVPTEPKKLEENEVIPKRISPVEESEDVSNKVSMSSTVQGSNIFERTE
IC50, EGF-stimulated chemotaxis of MCF10A cells or HaCat keratinocytes [1]: 100 to 300 nM

B2: syndecan-1 (Sdc1), human, endogenous in human cell lines (receptor, UniProt P18827 23-310, looked up)
chain: QIVATNLPPEDQDGSGDDSDNFSGSGAGALQDITLSQQTPSTWKDTQLLTAIPTSPEPTGLEATAASTSTLPAGEGPKEGEAVVLPEVEPGLTAREQEATPRPRETTQLPTTHLASTTTATTAQEPATSHPHRDMQPGHHETSTPAGPSQADLHTPHTEDGGPSATERAAEDGASSQLPAAEGSGEQDFTFETSGENTAVVAVEPDRRNQSPVDQGATGASQGLLDRKEVLGGVIAGGLVGLIFAVCLVGFMLYRMKKKDEGSYSLEEPKQANGGAYQKPTKQEEFYA
notes: whole, on cells; Used as the comparison for Sdc4 in co-immunoprecipitation
binding result [2]: no binding

B3: mouse syndecan chimera: mSdc4 with its ectodomain swapped for that of Sdc1 (receptor, UniProt P18828 23-255, looked up)
chain: QIVAVNVPPEDQDGSGDDSDNFSGSGTGALPDTLSRQTPSTWKDVWLLTATPTAPEPTSSNTETAFTSVLPAGEKPEEGEPVLHVEAEPGFTARDKEKEVTTRPRETVQLPITQRASTVRVTTAQAAVTSHPHGGMQPGLHETSAPTAPGQPDHQPPRVEGGGTSVIKEVVEDGTANQLPAGEGSGEQDFTFETSGENTAVAAVEPGLRNQPPVDEGATGASQSLLDRKEVLGVLAALIVGGVVGILFAVFLILLLVYRMKKKDEGSYDLGKKPIYKKAPTNEFYA
notes: extracellular domain;domain: transmembrane and cytoplasmic domains; Expressed in HaCat cells; also called Sdc4 displaying the Sdc1 ectodomain
binding result [3]: no binding

B4: GST-S1CD, Sdc1 cytoplasmic domain fused to GST (other)
chain: {GST}-RMKKKDEGSYSLEEPKQANGGAYQKPTKQEEFYA
notes: The result sentences say only Sdc1; not shown: glutathione S-transferase (GST) fusion partner
binding result [4]: no binding

— patent US20140011747A1 (WISCONSIN ALUMNI RESEARCH FOUNDATION, published 2014)
